Results: PMC4684408, “Co-evolution of Bacterial Ribosomal Protein S15 with Diverse mRNA Regulatory Structures”
Numbering of substitutions follows the chain as printed.

Assays:
Gk-S15 [1] = molecular target: T1, Gk-S15 (UniProt Q5L0I3 1-89); assay: filter binding; 50 mM Tris/acetate pH 7.5, 20 mM Mg-acetate, 270 mM KCl, 5 mM DTT, 0.02% BSA, RNA <1 nM, 30 min at 25 C (thermophile RNAs also at 55 C); settings: protein: recombinant, label: 5'-32P
Tt-S15 = Tt-S15 (Thermus thermophilus, UniProt Q5SJ76); assay: as above; settings: protein: recombinant, label: 5'-32P
Gk-S15 [2] = molecular target: T1, Gk-S15; assay: filter binding; max fraction bound <20%; 50 mM Tris/acetate pH 7.5, 20 mM Mg-acetate, 270 mM KCl, 5 mM DTT, 0.02% BSA, RNA <1 nM, 30 min at 25 C (thermophile RNAs also at 55 C); settings: protein: recombinant; label: 5'-32P
Ec-S15 [3] = molecular target: T2, Ec-S15 (Escherichia coli, UniProt P0ADZ4 1-89); assay: filter binding; 5'-32P and 3'-pCp label; 50 mM Tris/acetate pH 7.5, 20 mM Mg-acetate, 270 mM KCl, 5 mM DTT, 0.02% BSA, RNA <1 nM, 30 min at 25 C (thermophile RNAs also at 55 C)
Ec-S15 [4] = molecular target: T2, Ec-S15; assay: filter binding; 50 mM Tris/acetate pH 7.5, 20 mM Mg-acetate, 270 mM KCl, 5 mM DTT, 0.02% BSA, RNA <1 nM, 30 min at 25 C (thermophile RNAs also at 55 C)
Rr-S15 = Rr-S15 (UniProt A0ABD5LGG5 1-89); assay: as above; settings: protein: recombinant; label: 5'-32P
Chain of Rr-S15 (A0ABD5LGG5 entry or part of it): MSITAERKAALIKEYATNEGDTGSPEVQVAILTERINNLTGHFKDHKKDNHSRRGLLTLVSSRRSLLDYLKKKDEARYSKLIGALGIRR

Chain of Tt-S15 (Q5SJ76 2-89): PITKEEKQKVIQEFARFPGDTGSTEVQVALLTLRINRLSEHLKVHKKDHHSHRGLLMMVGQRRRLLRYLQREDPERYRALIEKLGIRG

B1: Tt-mRNA WT (structured_RNA)
RNA: GGCUUGGCGGGAGACCGCCUCGAGGAGGAAGGGGCUCAAAGCGCCUUCCCGCCUGACGGAGGGAAAACAUGCCCAUCACGAA
Gk-S15 [1]; three-way junction
  Kd: 0.35 ± 0.23 nM
Tt-S15; three-way junction
  Kd: 2.11 ± 0.25 nM

B2: Tt-mRNA M1 (structured_RNA)
RNA: B1 RNA with U20A, C21A, G22A, A23U
Gk-S15 [2]
  Kd: 76.3 ± 5.7 nM

B3: Ec-mRNA WT (structured_RNA)
RNA: ACUGGGAUCGCUGAAUUAGAGAUCGGCGUCCUUUCAUUCUAUAUACUUUGGAGUUUUAAAAUGUCUCUAAGUACUGAAGCAACAGCU
Ec-S15 [3]
  binding result: no binding

B4: Gk-mRNA M2 (structured_RNA)
RNA: GGUCAAUGUAUGCGAACCAUUCUCCGGCUAGGCGAGUCACCGACGCCCGCUCGGCAAUCGGGGAUCUAGGACUAGGGAGGUGAACAAGGAUGGCAUUGAA
Ec-S15 [4]
  binding result: no binding
Rr-S15
  binding result: no binding
Tt-S15
  binding result: no binding

B5: Rr-mRNA M1 (structured_RNA)
RNA: GGAUAGGCAGCGCCAGCUUGGGCUUUGCCUAUGCUGCUGAAUGGCCAGAGAAAGACGACAUCCCGGCUCUAGGCGUCCCCGUUUUUCCUUAAAACAAGAAAGGAUCGUACGAUGUCGAUUACUGCAGAGCGCAAAGCC
Gk-S15 [1]
  Kd: 11.8 ± 6.9 nM
Tt-S15
  Kd: 8.8 ± 1.8 nM
